B1: TPR t1 (parent)
chain: GACCAAUCUGCCCUCAGAGCUCGAGAACAUCUUCGGAUGCAGAGGAGGCAGGCUUCGGUGGCGCGAUAGCGCCAACGUCCUCAACCUCCAAUGCAUCCCACCACAUGAUGAUGCCUGAAGAGCCUUGGUUUUUUG

The data set covers variants of B1. The experiment in a line: polymerase ribozyme fitness, log enrichment relative to wild type (log ratio); higher = more active; in vitro selection for triplet polymerase activity. The method in brief: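 One round of in vitro selection, in triplicate, was applied to PCR-built, transcribed mutant libraries of each subunit of a heterodimeric triplet polymerase ribozyme. The steps were annealing with a biotinylated primer, partner subunit and triplets, incubation frozen at −7 °C, gel excision of extended constructs, streptavidin-bead capture and RT-PCR. Fitness is the logarithm, base 2, of genotype enrichment over wild-type enrichment from inverse-variance-weighted replicate averages of Illumina-sequenced inputs and outputs, keeping genotypes with ≥10 input reads and ≥1 read per output.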
For the variant GACCAAUCUGCCCUCAGAGCUCGAGGACCUCUUCGGAUGCAGAGGAGGCAGGCUUCGGUGGCGCGAUAGCGCCAACGUCCUCAACCUCCAAUGCAUCCCACCACAUGAUGAUGCCUGAAGAGCCUUGGUUUUUUG, the “polymerase ribozyme fitness (log ratio)” value is -3.02.
The same measure for GACCAAUCUGCCCUCAGAGCUCGAGCACAUCUUCGGAUGCAGAGGAGGCAGGCGUCGGUGGCGCGAUAGCGCCAACGUCCUCAACCUCCAAUGCAUCCCACCCCUUGAUGACGCCUGAAGAGCCUUGGUUUUUUG: -6.86; for GACCAAUCUGCCCUCAGAGCUCGAGCACAUCUUCGAAUGCAGAGGAGGCAGGCUUCGGUGGCGCGAUAUCGCCAACGUCCUCAACCUCCAAUGCAUCCCACCACAUGAUAAUGCCUGAAGAGCCUUGGUUUUUUG: -6.98.
The same measure for GACCAAUCUGCCCUCAGAGCUCGAGCACAUCUUCGGAUGCAGAGGAGGCAGGCUGCGGUGGCGCGAUAGCGCCAACGUCCUCAACCUCCAAUGCAUCCCACCACAUGAUGAUGCCUGAAGAGCCUUGGUUUUUUG: -5.98.
For the variant GACCAAUCUGCCCUCAGAGCUCGAGCACAUCUUCGGAUGCAGAGGACGCAGGCUUCGGUGGCGCGAUAGCGCCAACGUCCUCAACCUACAAUGCAUCCCACGACCUGAUGAUGCCUGAAGAGACUUGGUUUUUUG, the “polymerase ribozyme fitness (log ratio)” value is -7.85.
The value for GACCAAUCUGCCCUCAGAGCUCGAUAACAUCUUCGGAUGCAGAUGAGGCAGGCUUAGGUGGCGCGAUAGUGCCAACGUCCUCAACCUCCAAUGCAUCCCACCACAUGAGGAUGCCUGAAGAGCCUUGGUUUUUUG was -7.02; that for GACCAAUCUGCCCUCAGAGCUCGAGCACAUCUUCGUAUGCUGAGGAGGCAGGCUUCGGUGGCGCGAUAGCGCCAACGUCCUCAACCUCCAAUGCAUCCCACCACAUGAUGAUGCCUGAAUAGCCUUGGUUUAUUG was -5.17.
Consider GACCAAUCUGCCCUCAGAGCUCGAGGACAUCUUCGGUUGCAGAGGAGGCAGGCUUCGGUGGCGCGAUAGCGGCAACGUCCUCAACCUCCAAUGCAUCCCACCACAUGAUGAUGCCUGAAGAGUCUUGGUUUUAUG, for which the “polymerase ribozyme fitness (log ratio)” value was -2.74.
For GACCAAUCUGCCCUCAGAGCUCGAGGACAUCUUCGGAUGCAGUGGAGGCUGGCUUCGGUGGCGCGAUAGCGACAACGUCCUCAACCUCCAAUGCAUCCCACCACAUGAUGAUGCCUGAAGAGCCUUGGUUUUUUG, the “polymerase ribozyme fitness (log ratio)” value is -5.38.
The value for GACCAAUCUGCCCUCAGAGCUCGAGCACAUCUUCGGAUGCAGAGGAGGAAGGCUUCGGUGGCGCGAUAGCGCCAACGUCCUCAACCUCCAAUGCAUCCCACCACAUGAUGAUGCCUGAAGAGUCUUGGUUUUUUG was -4.69.
On to GACCAAUCUGCCCUCAGAGCUCGAGCACAUCUUCGGAUGCAGAGGAGGCAGGCUUCGGUGGCGCGAUAUCGCCAACGUCCUCAACCUCCAAUGCAUCCCACCACAUGAUGAUGCCUGAAUAGCCUUGGUUUUUUG, for which the “polymerase ribozyme fitness (log ratio)” value was -2.51.
The value for GACCAAUCUGCCCUCAGAGCUCGAGCACAUCUUCGGAUGGAGAGGAGGCAGGCUUCGGUGGCGCGAUAGCGCCAACGUCCUCAACCCCCAAUGCAUCCCAUCAUAUGAUGAUGCCUGAAGAGCCUUGGUUUUUUG was -5.71; that for GACCAAUCUGCCCUCAGAGCUCGAGCACAUCUUCGGAUGCAGAGGAGGCAGGCUUCGGUGGCACGAUAGCGCCAACGUCCUGAACCUCCGAUGCAUCCCACCACAUGAUGAAGCCUGAAGAGCCUUGGUUUUUUG was -5.15.
On to GACCAAUCUGCCCUCAGAGCUCGAGCACAUCUUCGGAUGCAGAGGAGGCAGGCUUCUGUGGCGCGAUAGCGCCAACGUCCUCAACCUCCAAUGCAUCCCACCACAUGAUGAUGCCUGAAGAGCCUUGGUUUUUUG, for which the “polymerase ribozyme fitness (log ratio)” value was -6.49.
The value for GACCAAUCUGCCCUCAGAGCUCGAGCACAUCUUCGGAUGCAGAGGCGGCAGGCUUCGGUGGCGCGAUAGCGCCAACGUCCUCAACCUCCAAUGCAUCCCACCACAUGAUGAUGCGUGAAGAGCCUUGGUUUUUUG was -6.72.
The same measure for GACCAAUCUGCCCUCAGAGCUCGAGCACAUCUUCGGAUCCAGAGGAGGCAGGCUUAGGUGGCGCGAUAGCGCCAACGUCCUCAACCUCCAAUGCAUCCCGCCACAUGAUGACGCCUGAAGAGCCUUGGUUUUUUG: -7.51.
Consider GACCAAUCUGCCCUCAGAGCUCGAUAACAUCUUCGGAUGCAGAGGUGGCAGGCUUCGGUGGCGCGAUAGCGCCAACGUCCUCAACCUCCAAUGCAUCCCACCACAUGAUGAUGCCUGAAGAGCCUUGGUUUUUUG, for which the “polymerase ribozyme fitness (log ratio)” value was -5.86.
The value for GACCAAUCUGCCCUCAGAGCUCGAGCACAUCUUCGGAUGCAGAGGAGGCAGGUUUCGGUGGCGCGAUAGCGCCAACGUCCUCAACUUCCAAUGCAUCCCACCACAUGAUGAAGCCUGAAGAGCCUUGGUUUUUUG was -5.9.
The same measure for GACCAAUCUGCCCUCAGAGCUCGAUAACAUCUUCGGAUGCAGAGGAGGCAGGCUUCGGUGGCGCGAUAGCGCCAACGUCCUCAACCUCCAAUGCAUCCCACCACAUGAUGAUGCCUGAAAAGCCUUGGUUUUUUG: -3.94.
The same measure for GACCAAUCUGCCCUCAGAGCUCGAUAACAUCUUCGGAUGCAGAGGAGGCAGGCUUCGGUGGCGCGAUAGCGCCAACGUCCUCAACCUCCAAUGCAUCCCACCACAUGAUGAUGCCUGAACAGCCUUGGUUUUUUG: -3.76.
For the variant GACCAAUCUGCCCUCAGAGCUCGAGGACAUCUUCGGAUGCGGAGGAGGCAGGCUUCGGUCGCGCGAUAGCGCCAACGUCCUCAACCUCCAAUACAUCCCACCACAUGAUGAUGCCUGAAGAGCCUUGGUUUUUUG, the “polymerase ribozyme fitness (log ratio)” value was -2.97.

The values are drawn from the RNAGym collection of RNA variant scans (doi:10.1073/pnas.2313332121).
